Consider 4 molecules from patent publication US20230212319A1, “NOVEL ANTIGEN BINDING DOMAINS AND SYNTHETIC ANTIGEN RECEPTORS INCORPORATING THE SAME” (University of Southern California, priority 2020, published 2023).

What all share (type): cell-based
For experiment [1], the system named is LNCaP cells. Put plainly: JNG assay, co-culture with LNCaP cells. The settings on record: for redirection to LNCaP cells: LNCaP (PSMA+) cells in the presence of SAR adaptor CD8SP-PSMA-USC76-chVH-EZIP (SEQ ID NO: 23118). A digest of the protocol:
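SAR-JNG (lentiviral spinfection, drug-selected) + target cells, E:T ≈1:2, ≈4–18 h; FACS for GFP; positivity = %GFP+ over parental JNG; grades +/- to 5+ ≈ 5–50% GFP+.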

Experiment [2] relates to L363 cells. Briefly: JNG assay, co-culture with L363 cells. The settings on record: for GFP induction: L363 cells (BCMA+), only in the presence of SAR adaptor BCMA-FHVH-74-EZIP (SEQ ID NO: 23119). A digest of the protocol:
(§1)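 Jurkat NFAT-GFP (JNG) cells stably transduced with SARs by lentivirus, with drug selection where the construct carried a resistance gene, then co-cultured with target cells at E:T ~1:2 for ~4–18 h. % GFP-positive cells measured by FACS against parental JNG; +/- to 5+ correspond to ~5–50% GFP-positive.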

Experiment [3] relates to RAJI cells. Put plainly: JNG assay, co-culture with RAJI cells. The settings on record: JNG cells expressing construct, co-culture with Raji. In a few lines: as §1

B1: SEQ ID NO: 22293: bispecific CD19xCD20 SAR with RZIP leucine zipper domain on hu-mR005-1 vL and CD20-VHH-USC1-2HCD26 on the vH domain (protein)
chain: MALPVTALLLPLALLLHAARPACMDPDLEIRAAFLRQRNTALRTEVAELEQEVQRLENEVSQYETRYGPLGGGKGTGGGGSGGGGSGGGGSEFDIQMTQSPSSLSASVGDRVTITCKASDHINNWLAWYQQKPGQAPKLLIYGATTLETGVPSRFSGSGSGTDYTLTISSLQPEDFATYYCQQSWNTPWTFGQGTKLEIKRLEDLKNVFPPEVAVFEPSEAEISHTQKATLVCLATGFYPDHVELSWWVNGKEVHSGVCTDPQPLKEQPALNDSRYCLSSRLRVSATFWQNPRNHFRCQVQFYGLSENDEWTQDRAKPVTQIVSAEAWGRADCGFTSESYQQGVLSATILYEILLGKATLYAVLVSALVLMAMVKRKDSRGRAKRSGSGATNFSLLKQAGDVEENPGPTSATMDWIWRILFLVGAATGAHSGPEVQLVESGGGLVQAGGSLRLSCAASGRTFSMGWFRQAPGKEREFVAAITYSGGSPYYADSVKGRFTISRDNAKNTVYLQMNSLKPEDTAVYYCAANPTYGSDWNAENWGQGTQVTVSSGSGGGGSGGGGSGGGGSFEQVQLQQPGAELVKPGASVKMSCKASGYAFSSYWINWMKQKPGQGLEWIGQIYPGDGDTNYNGKFKGRATLTADTSSSTAYMQLSSLTSEDSAVYFCARSITTVVGCAMDYWGQGTSVTVSSTRIQNPDPAVYQLRDSKSSDKSVCLFTDFDSQTNVSQSKDSDVYITDKCVLDMRSMDFKSNSAVAWSNKSDFACANAFNNSIIPEDTFFPSPESSCDVKLVEKSFETDTNLNFQNLSVIGFRILLLKVAGFNLLMTLRLWSSRAKRSGSGVKQTLNFDLLKLAGDVESNPGPSRGHMTEYKPTVRLATRDDVPRAVRTLAAAFADYPATRHTVDPDRHIERVTELQELFLTRVGLDIGKVWVADDGAAVAVWTTPESVEAGAVFAEIGPRMAELSGSRLAAQQQMEGLLAPHRPKEPAWFLATVGVSPDHQGKGLGSAVVLPGVEAAERAGVPAFLETSAPRNLPFYERLGFTVTADVEVPEGPRTWCMTRKPGA
Turning to B1, the “redirection to LNCaP cells” value in experiment [1] is listed as “could be redirected”. In addition, the GFP induction entry in experiment [2] is reported as “robust induction of GFP”.

B2: 22293 (protein)
chain: MALPVTALLLPLALLLHAARPACMDPDLEIRAAFLRQRNTALRTEVAELEQEVQRLENEVSQYETRYGPLGGGKGTGGGGSGGGGSGGGGSEFDIQMTQSPSSLSASVGDRVTITCKASDHINNWLAWYQQKPGQAPKLLIYGATTLETGVPSRFSGSGSGTDYTLTISSLQPEDFATYYCQQSWNTPWTFGQGTKLEIKRLEDLKNVFPPEVAVFEPSEAEISHTQKATLVCLATGFYPDHVELSWWVNGKEVHSGVCTDPQPLKEQPALNDSRYCLSSRLRVSATFWQNPRNHFRCQVQFYGLSENDEWTQDRAKPVTQIVSAEAWGRADCGFTSESYQQGVLSATILYEILLGKATLYAVLVSALVLMAMVKRKDSRGRAKRSGSGATNFSLLKQAGDVEENPGPTSATMDWIWRILFLVGAATGAHSGPEVQLVESGGGLVQAGGSLRLSCAASGRTFSMGWFRQAPGKEREFVAAITYSGGSPYYADSVKGRFTISRDNAKNTVYLQMNSLKPEDTAVYYCAANPTYGSDWNAENWGQGTQVTVSSGSGGGGSGGGGSGGGGSFEQVQLQQPGAELVKPGASVKMSCKASGYAFSSYWINWMKQKPGQGLEWIGQIYPGDGDTNYNGKFKGRATLTADTSSSTAYMQLSSLTSEDSAVYFCARSITTVVGCAMDYWGQGTSVTVSSTRIQNPDPAVYQLRDSKSSDKSVCLFTDFDSQTNVSQSKDSDVYITDKCVLDMRSMDFKSNSAVAWSNKSDFACANAFNNSIIPEDTFFPSPESSCDVKLVEKSFETDTNLNFQNLSVIGFRILLLKVAGFNLLMTLRLWSSRAKRSGSGVKQTLNFDLLKLAGDVESNPGPSRGHMTEYKPTVRLATRDDVPRAVRTLAAAFADYPATRHTVDPDRHIERVTELQELFLTRVGLDIGKVWVADDGAAVAVWTTPESVEAGAVFAEIGPRMAELSGSRLAAQQQMEGLLAPHRPKEPAWFLATVGVSPDHQGKGLGSAVVLPGVEAAERAGVPAFLETSAPRNLPFYERLGFTVTADVEVPEGPRTWCMTRKPGA
Consider B2, for which the “NFAT-GFP ASSAY: LNCaP with PSMA-USC76-chVH-EZIP” value in experiment [1] (LNCaP in presence of SAR adaptor PSMA-USC76-chVH-EZIP) is “+5.5”. Further, the “NFAT-GFP ASSAY: L363 with BCMA-FHVH-74-EZIP” value in experiment [2] (L363 in presence of SAR adaptor BCMA-FHVH-74-EZIP) is recorded as “+3”.

B3: 22288 (protein)
chain: MALPVTALLLPLALLLHAARPACLFNQEVQIPLTESYCGPCPKNWICYKNNCYQFFDESKNWYESQASCMSQNASLLKVYSKEDQDLLKLVKSAHWMGLVHIPTNGSWQWEDGSILSPNLLTIIEMQKGDCALYASSFKGYIENCSTPNTYICMQRTVLEGQPKANPTVTLFPPSSEELQANKATLVCLISDFYPGAVTVAWKADGSPVKAGVETTKPSKQSNNKYAASSYLSLTPEQWKSHRSYSCQVTHEGSTVEKTVAPTECSPIKTDVITMDPKDNCSKDANDTLLLQLTNTSAYYMYLLLLLKSVVYFAIITCCLLRRTAFCCNGEKSRAKRSGSGATNFSLLKQAGDVEENPGPTSATMDWIWRILFLVGAATGAHSGPQVQLQESGGGLAQAGGSLRLSCAASGRTFSMGWFRQAPGKEREFVAAITYSGGSPYYASSVRGRFTISRDNAKNTVYLQMNSLKPEDTAVYYCAANPTYGSDWNAENWGQGTQVTVSSGSGGGGSGGGGSGGGGSFEDLFNQEVQIPLTESYCGPCPKNWICYKNNCYQFFDESKNWYESQASCMSQNASLLKVYSKEDQDLLKLVKSAHWMGLVHIPTNGSWQWEDGSILSPNLLTIIEMQKGDCALYASSFKGFIENCSTPNTYICMQRTVTRASTKGPSVFPLAPSSKSTSGGTAALGCLVKDYFPEPVTVSWNSGALTSGVHTFPAVLQSSGLYSLSSVVTVPSSSLGTQTYICNVNHKPSNTKVDKRVEPKSCEVKTDSTDHVKPKETENTKQPSKSCHKPKAIVHTEKVNMMSLTVLGLRMLFAKTVAVNFLLTAKLFFLRAKRSGSGVKQTLNFDLLKLAGDVESNPGPSRGHMTEYKPTVRLATRDDVPRAVRTLAAAFADYPATRHTVDPDRHIERVTELQELFLTRVGLDIGKVWVADDGAAVAVWTTPESVEAGAVFAEIGPRMAELSGSRLAAQQQMEGLLAPHRPKEPAWFLATVGVSPDHQGKGLGSAVVLPGVEAAERAGVPAFLETSAPRNLPFYERLGFTVTADVEVPEGPRTWCMTRKPGA
Turning to B3, in experiment [3], the “NFAT-GFP ASSAY: Raji” value was 3+ (refer to approximately 5%, 10%, 20%, 30%, 40% and 50% GFP positive cells). For the same molecule, the “NFAT-GFP ASSAY: LNCaP with PSMA-USC76-chVH-G4S-ULBP2-S3” value in experiment [1] (LNCaP in presence of SAR adaptor PSMA-USC76-chVH-G4S-ULBP2-S3) was “+ (refer to approximately 5%, 10%, 20%, 30%, 40% and 50% GFP positive cells)”.

B4: SEQ ID NO: 22294: RZIP domain attached directly to truncated TCR chain [hTCRb-wt-opt2-6MD] with a short GS linker, without Ig or long linker (protein)
chain: MALPVTALLLPLALLLHAARPQLQLQESGPGLVKPSETLSLTCTVSGDSISSGDYYWGWIRQPPGKGLEWIGHIYYSGVTYYNPSLKSRVTISVDTSRNQFSLKLSSVTAADTAVYYCTREDSSNWRSRGQGTLVTVSSLEGSIPEDTFFPSPESSCDVKLVEKSFETDTNLNFQNLSVIGFRILLLKVAGFNLLMTLRLWSSRAKRSGSGVKQTLNFDLLKLAGDVESNPGPTSATMDWIWRILFLVGAATGAHSEFMDPDLEIRAAFLRQRNTALRTEVAELEQEVQRLENEVSQYETRYGPLGGGKTRGSGRADCGFTSESYQQGVLSATILYEILLGKATLYAVLVSALVLMAMVKRKDSRGRAKRSGSGATNFSLLKQAGDVEENPGPSRGHMTEYKPTVRLATRDDVPRAVRTLAAAFADYPATRHTVDPDRHIERVTELQELFLTRVGLDIGKVWVADDGAAVAVWTTPESVEAGAVFAEIGPRMAELSGSRLAAQQQMEGLLAPHRPKEPAWFLATVGVSPDHQGKGLGSAVVLPGVEAAERAGVPAFLETSAPRNLPFYERLGFTVTADVEVPEGPRTWCMTRKPGA
As for B4, the “redirection to LNCaP cells” value in experiment [1] is given as “Weaker results”. For the same molecule, the GFP induction entry in experiment [2] is given as “Weaker results”.
